Measurements published in article PMC10953500 (2024).

Legend:
[1] = target: recombinant CD89 (Fc-alpha receptor, FcαRI) with C-terminal His-tag (UniProt P24071 22-227); test: SPR
[2] = target: receptor binding domain (RBD) of the SARS-CoV-2 spike protein with C-terminal 6xHis-tag (SARS-CoV-2, UniProt P0DTC2 319-541); test: SPR

Sequence of recombinant CD89 (Fc-alpha receptor, FcαRI) with C-terminal His-tag (P24071 22-227): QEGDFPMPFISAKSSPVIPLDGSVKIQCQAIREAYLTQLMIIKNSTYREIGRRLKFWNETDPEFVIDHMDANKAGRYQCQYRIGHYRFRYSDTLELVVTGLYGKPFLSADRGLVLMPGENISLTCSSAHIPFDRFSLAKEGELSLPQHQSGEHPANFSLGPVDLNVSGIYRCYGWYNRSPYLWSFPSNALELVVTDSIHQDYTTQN

B1: COVA2-15 monomeric IgA2 (antibody)
chain 1: QVQLLESGGGLVQPGGSLRLSCAASGFTFSSYAMSWVRQAPGKGLEWASAISGSGGSTYYADSVEGRFTISRDNSKNTLYLQMNSLRAEDTAVYYCAKDTGYCGDDCYIKLIRGGPDYWGQGTLVTVSS
chain 2: DIVMTQSPLSLPVTLGQPASISCRSSQSLVYSDGNTFLNWFQQRPGQSPRRLIYQVSNRDSGVPDRFSGSGSGTDFTLKISRVEAEDVGVYYCMQGTHWPRTFGQGTKLEIK
In the case of B1, the Kd [1] is reported as 35.7 nM and the Kd [2] is reported as 1.56 nM.
